T1: mouse IL-5Rα on Y16 cells (mouse, UniProt P21183 18-415)
T1 construct: whole, on cells; also called IL-5Rα chain; mouse IL-5Rα-expressing cell Y16
T1 sequence (looked up): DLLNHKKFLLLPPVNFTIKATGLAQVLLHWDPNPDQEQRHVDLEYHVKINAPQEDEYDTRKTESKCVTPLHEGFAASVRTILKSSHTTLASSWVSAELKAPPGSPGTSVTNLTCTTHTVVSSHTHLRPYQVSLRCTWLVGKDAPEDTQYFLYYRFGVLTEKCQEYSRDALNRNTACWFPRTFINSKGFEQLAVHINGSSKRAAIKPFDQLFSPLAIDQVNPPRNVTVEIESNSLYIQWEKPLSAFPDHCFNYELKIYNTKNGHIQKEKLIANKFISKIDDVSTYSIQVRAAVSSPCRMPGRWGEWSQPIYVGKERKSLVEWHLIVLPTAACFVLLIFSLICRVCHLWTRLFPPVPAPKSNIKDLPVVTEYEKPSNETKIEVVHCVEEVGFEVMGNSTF


Target: T1, mouse IL-5Rα on Y16 cells
Test: flow cytometry on Y16 cells expressing mouse IL-5R, detection with goat F(ab')2 anti-human IgG PE, Geomean
Experimental: The chimeric antibodies prepared in Example 8 were evaluated for their antigen binding activity using a mouse-derived cell line Y16 expressing IL-5R. The Y16 cells were washed with SM (staining medium containing 2% FCS, 0.05% NaN₃, and 1 mM EDTA in PBS). Then, Mouse BD Fc Block (manufactured by Becton, Dickinson and Company) was added thereto at a concentration of 5 μg/mL, and the mixture was left standing at 4° C. for 30 min. The cells were inoculated at a cell number of 1×10⁵ cells/well to a 96-well U-bottom plate, and each chimeric antibody adjusted to a final concentration of 10000, 2500, 625, 156, 39, 10, 2.4, or 0.6 ng/mL was added thereto, followed by reaction at 4° C. for 60 min. The rat/human chimeric control antibodies used were rtDNP-1 hIgG1 (DF) antibody (KM8808) and rtDNP-1 hIgG1 (N297A) antibody (KM6161). The nucleotide sequences and amino acid sequences of the variable regions of each isotype control antibody are shown in SEQ ID NOs: 29 to 34. After washing of the cells with SM, Goat F(ab′)₂ Anti-Human IgG PE (γ chain specific) (manufactured by Southern Biotech) diluted 500-fold with SM was added thereto, followed by reaction at 4° C. for 60 min. After washing of the cells with SM, the cells were resuspended in 50 μL of SM. Fluorescence intensity was measured by FCM (flow cytometer FACS Canto II (manufactured by Becton, Dickinson and Company)). The data was analyzed using FlowJo 7.65 (manufactured by Tomy Digital Biology Co., Ltd.) to calculate a Geomean value at each concentration.

Binder | binding result | EC50 (read off the curve) [µg/mL]
H7 hIgG1 (DF) (H7-1) (antibody, V domains shown, also called core fucose-deficient H7 chimeric antibody; Potelligent-type H7 chimeric antibody) VH: EVQLQQSGAELGKPGTSVKLSCKVSGYNIKNTYIHWVNQRPGKGLEWIGRIDPANGNPIYAEKFKNKATLTADTSSNTAYMQLSQLKSDDTAIYFCAMHRGHSMGPGPYVMDAWGQGASVTVSS VL: DIQMTQSPASLSASLGETVTIECRTSEDIYNGLAWYQQKPGKSPQLLIYNANSLHTGVPSRFSGSGSGTQYSLKINSLQSEDVASYCCQQYSNYPFTFGSGTKLEIK |  | ~0.06
H7 (CS) hIgG1 (DF) (H7-2) (antibody, V domains shown, Human IgG1 and human kappa constant regions, no core fucose (FUT8-/- CHO); also called Cys substitution variant H7-2; H7 (CS) altered form) VH: EVQLQQSGAELGKPGTSVKLSCKVSGYNIKNTYIHWVNQRPGKGLEWIGRIDPANGNPIYAEKFKNKATLTADTSSNTAYMQLSQLKSDDTAIYFCAMHRGHSMGPGPYVMDAWGQGASVTVSS VL: DIQMTQSPASLSASLGETVTIECRTSEDIYNGLAWYQQKPGKSPQLLIYNANSLHTGVPSRFSGSGSGTQYSLKINSLQSEDVASYSCQQYSNYPFTFGSGTKLEIK |  | ~0.04
H7 (CS) hIgG1 (N297A) (H7-4) (antibody, V domains shown, H7 VL with Cys 87 replaced by Ser. Human IgG1 constant region with N297A (EU index) and human kappa constant region; also called H7 (CS) altered form) VH: EVQLQQSGAELGKPGTSVKLSCKVSGYNIKNTYIHWVNQRPGKGLEWIGRIDPANGNPIYAEKFKNKATLTADTSSNTAYMQLSQLKSDDTAIYFCAMHRGHSMGPGPYVMDAWGQGASVTVSS VL: DIQMTQSPASLSASLGETVTIECRTSEDIYNGLAWYQQKPGKSPQLLIYNANSLHTGVPSRFSGSGSGTQYSLKINSLQSEDVASYSCQQYSNYPFTFGSGTKLEIK |  | ~0.04

Next, values leading:

binding result | EC50 (read off the curve) [µg/mL] | Binder
no binding (tested: 10 µg/mL) |  | rtDNP-1 hIgG1 (DF) antibody (KM8808) (antibody, V domains shown, Isotype control; Rat anti-DNP variable regions on a human IgG1 constant region, no core fucose; also called core fucose-deficient anti-dinitrophenol (DNP) rat/human chimeric antibody) VH: EVQLQESGPGLVKPSQSLSLTCSVTGYSITSGYWNWIRKFPGNKMEWIGYISYSGSTYYNPSLKSRISITRDTSKNQFFLQLNSVTTEDTATYYCARWGVRHYFDYWGQGVMATVSS VL: DVVMTQTPVSLPVSLGGQASISCRSSQSLANSYGNTYLSWYLQKPGQSPQLLIYRVSNTFSGVPDRFSGSGSGTDFTLKISRVEPEDLGDYYCLQGTHQPYTFGAGTKLELK
no binding (tested: 10 µg/mL) |  | rtDNP-1 hIgG1 (N297A) antibody (KM6161) (antibody, V domains shown, Isotype control; Rat anti-DNP variable regions on a human IgG1 constant region with N297A; also called N-linked sugar chain-deficient anti-DNP rat/human chimeric antibody) VH: EVQLQESGPGLVKPSQSLSLTCSVTGYSITSGYWNWIRKFPGNKMEWIGYISYSGSTYYNPSLKSRISITRDTSKNQFFLQLNSVTTEDTATYYCARWGVRHYFDYWGQGVMATVSS VL: DVVMTQTPVSLPVSLGGQASISCRSSQSLANSYGNTYLSWYLQKPGQSPQLLIYRVSNTFSGVPDRFSGSGSGTDFTLKISRVEPEDLGDYYCLQGTHQPYTFGAGTKLELK
 | ~0.06 | H7 hIgG1 (N297A) (H7-3) (antibody, V domains shown, Rat H7 variable regions on a human IgG1 constant region with N297A (EU index), so it lacks the N-linked sugar chain; Human kappa light chain constant region; also called N-linked sugar chain-deficient H7 chimeric antibody) VH: EVQLQQSGAELGKPGTSVKLSCKVSGYNIKNTYIHWVNQRPGKGLEWIGRIDPANGNPIYAEKFKNKATLTADTSSNTAYMQLSQLKSDDTAIYFCAMHRGHSMGPGPYVMDAWGQGASVTVSS VL: DIQMTQSPASLSASLGETVTIECRTSEDIYNGLAWYQQKPGKSPQLLIYNANSLHTGVPSRFSGSGSGTQYSLKINSLQSEDVASYCCQQYSNYPFTFGSGTKLEIK

Reference: patent publication US20180155434A1 (UNIVERSITY OF TOYAMA, published 2018)
